In article PMC9653380:

Key:
[1] = molecular target: Fc-tagged human ACE2 (human) (UniProt Q9BYF1); assay: BLI
[2] = molecular target: variant S-trimer (prefusion-stabilized SARS-CoV-2 spike trimer, S-6P backbone, with K417N, E484K, N501Y and D614G) (SARS-CoV-2 | bacteriophage T4); assay: SEC

## variant S-trimer (prefusion-stabilized SARS-CoV-2 spike trimer, S-6P backbone, with K417N, E484K, N501Y and D614G)
[1]
  Kd: 9.14 nM
[2]
  stoichiometry N: 3
